B1: TPR t1 (parent)
chain: GACCAAUCUGCCCUCAGAGCUCGAGAACAUCUUCGGAUGCAGAGGAGGCAGGCUUCGGUGGCGCGAUAGCGCCAACGUCCUCAACCUCCAAUGCAUCCCACCACAUGAUGAUGCCUGAAGAGCCUUGGUUUUUUG

Variants of: B1
Assay: polymerase ribozyme fitness, log enrichment relative to wild type (log ratio); higher = more active; in vitro selection for triplet polymerase activity
In short: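 To select mutant libraries of each subunit of a heterodimeric triplet polymerase ribozyme, built by PCR and transcribed, each was annealed with a biotinylated primer, partner subunit and triplets, then incubated frozen at −7 °C. Extended constructs were gel-excised, captured on streptavidin beads and amplified by RT-PCR, in one round carried out in triplicate. Illumina sequencing of input and output libraries kept genotypes with ≥10 input reads and ≥1 read per output. Fitness is the base-2 logarithm of genotype enrichment relative to wild-type enrichment, from inverse-variance-weighted replicate averages.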

Variant | polymerase ribozyme fitness (log ratio)
C31A C73U | -5.76
C28A U112A | -1.21
C28G G71U | -2.39
C28G G57C G63C C73U A83C C123A | -5.12
U30A A41C G113A C124A | -5.47
C28G G110U C124U | -0.355
C28U A108G | -4.76
C28A A41U C53G C104G G110A | -6.89
C31A G107C | -4.91
A29U C73U C98U A111C | -3.36
U30A G48C G63U C124A | -5.12
C31G A50C U109G U131A | -4.54
A29U G69U | -0.63
A29G A37U G61U | -1.98
A29G A50G C99G A105G C124A | -7.1
C28A C70U | -4.86
U30G C34G C56A U109A A111C G117U U131C U132C | -6.83
C28G G69U A121C | 0.386
C31U C82A | -5.41
U32A C56G | -3.79
U32A C56A | -3.44
U30G A43U G45U G47A C49A C73A U106A A119G | -3.78
A29C G69U C99U | -3.95
A27U C73U A75G | -3.03

Variant | polymerase ribozyme fitness (log ratio)
A27U G61A | -2.77
A29U C62U C89G | -3
C28G G48A A83C A84C | -3.22
A29G C56G | -1.53
A27U G47U | -2.07
C28G G77U | -3.74
A29U C70U | -2.15
C28U C124U | -0.485
C28U C124A | 0.0271
C31U G47U | -6.27
U30A U129G | -4.77
U30C U78G | -3.78
A29G G45C U106A | -1.67
C28U A41C G57C | -2.88
A29G A105U | -4.23
A29G C124A | 0.584
A29G C124U | 1.18
A29G G63A C88A | -2.37
A29G G71A U92C U129C | -4.75
C31G G47A C80G C115U U126A | -8
C28U G61A C64U A121C | -4.25
A29G A46G | -1.09
C31G C62U A84G U87A G93U G120U | -6.9
A29U G77C U112G G127C | -5.41

Variant | polymerase ribozyme fitness (log ratio)
A29G C49G C85G | -2.46
C28G G110A G128U | -2.89
C31U U78G C101G C104A G110A | -5.57
C28G G52A C70U C86U C101U G110A U131G | -2.57
U30C G42U | -3.85
C28U C82A C114U | -3.98
A27U C86G | -3.66
A27U C86A | -3.77
A29U C76G C86A | -2.31
C28U C64U U87A | -1.96
C28U U133G | -1.83
A29U G52U U106C G117A A118U C124G | -1.91
C31G A41U U55G G61U C86U G93C C102U G113C | -6.73
C28A G47A C79U G110C | -2.69
C31U A50U C53U C72U G93A C124U | -7.15
C28U A46G U129G | -2.5
A29G U32C U106A | -2.24
A29G G69U | -0.507
C28A A75G G120U U129G | -6.26
C31G C88G G110A U126G | -6.03
U30C A46G A74G G113A | -2.75
U30G A43C C104A A111U | -6.22
C31U A66C U78G U106A C123A | -2.21
C28U U59C G61A C123U | -6.95

Variant | polymerase ribozyme fitness (log ratio)
A27U G39C G120U | -2.78
A29G C72A | -1.27
C28G U87G | -2.01
A29G A111C | -0.114
C28U C40A G120C | -2.59
A29G G35C G45A A100G U112C U116C | -7.03
A27U G44U C56A U133A | -4.31
C28U C56U C73G U78C C101A | -5.44
C31U C115A G120A | -4.78
A27U U54A A75U U78C G127C | -6.04
C31G A50C U112A | -6.45
C28G C34U G35U A37U A95C C114U U133G | -6.83
C31A C88G | -4.98
A27U G77U U78G A111C | -6.32
C28G A118G | -2.17
A29U C40U G44U C85U C89A C94G | -4.32
U30C U78A U96A | -5.15
C28U C49G U129A | -5.15
C31U U54G U59C A103C A111C | -5.45
A27U G48U A50U C123U | -2.86
A29C G71C A95U C124U | -4.83
A29C G61U A90G U116G | -5.84
C31U C123A | -4.45
A29U G69C C98U G113C | -4.71

Variant | polymerase ribozyme fitness (log ratio)
C28G C72G | -2.2
A29G A37C | -2.19
C28G C123U | -0.975
A27U G60U G128A | -4.65
C31U C49U C104U C115A | -4.23
A29G C53A C70G G110C | -5.69
C28U C73G G93C | -3.34
A29G A91G G113A | -2.3
C28U | -1.69
C28G | -2.31
C28A | -3.83
U32A C72U | -5
U32A C72G | -3.95
A29U G48A A111C | -2.11
A29U C73A C98A | -4.9
C28A A50C C72U G113A | -3.3
A29U U32C G61C C70G C98A C114U | -5.96
A27U G44C G47C U112A | -3.34
A27U C101A | -4.18
C31U C34G C53G C70G A90C G120A G122A C124A | -7.98
A29G U116G | -2.77
A29C A37C C53A G110U | -5.11
C28U G93A | -1.92
C31G A111U C114U | -6.64

Variant | polymerase ribozyme fitness (log ratio)
A27U C114A | -3.53
U30G C49G C80G G117C | -7.34
C31G G35C A43G G110C | -7.68
C31A G44U C101U C124G | -5.62
A27U U81C U132C | -4.09
C28A U54A G71U G110U | 1.85
C31U U81C G120U | -6.22
C31G C99G | -6.63
C31G C88A G110U C115A | -7.42
C31A U32C C123G | -3.17
C28A C56U | -2.94
C31U C72G | -4.16
C31U C86U | -4.08
A29G C73A | -1.67
A27U G127A | -4.51
U32A C40U G63A A83G G120C | -7.22
C28U C40U G51C C76A | -6.21
C28A G39U A43G C56U G61U C64G G120C | -6.64
A27U G63U U96G G127C | -6.08
C31U C49G G63U A75C | -6.11
C31G G39A G107C U133G | -2.1
C31G G57A G58C G63A U112C | -7.16
A27U G71U G93U | -5.1
A29G A118U | -0.684

Variant | polymerase ribozyme fitness (log ratio)
C28G C82U | -2.1
A29U C53A U54C C76U C85A U131C | -3.17
A29U G48U C70G C123U | -5.55
A29G A50U C73A | -2.36
C28U C40A C123A | -3.16
U30A G39U C101A A111U A119G C123G | -6.64
A29U C53U C79U A111C G120C | -3.26
A27U G44C U96C | -4.49
C28U C53U U92C U106A U133A | -3.09
A29U C40U C62A A83C | -3.08
A29U G44U G60A G113U A118G U131G | -5.8
A29G A41C A119U U133G | -2.94
C28U C56A | -1.65
C28A A43U C86G | -5.44
U32A C34G | -6.88
C31G C34G C97A C102A G113A | -6.66
A29U G48C G113C U129A | -4.71
U30C C49A C62A C115A | -4.4
C31G C124G | -6.98
U30C G71U U87C | -4.19
A29U C53G U81A A121U U132A | -1.75
U30G C115A | -5.72
C31U G69U C73U A100U | -3.8
